This data set is described as follows: soluble on expression in E. coli; label from the status in PepcDB or PDB records.
In the case of “MGSDKIHHHHHHMTSLKQQLLDVKGGRNFRELGGYQTVSGKKIKMHKLIRSGHLADLLKEDQEYLRRYGLKYDIDLRTSFERNKQPDRKISGVEYFADPVFDEDLTNSTMSISDMARESQDPGWGYQRMLWAYKNMATGKNANKAYQHLFEVLLANEKDSESVLFHCTAGKDRTGFGAILILTALGVPMKTIEKDYLFTNEVIKDFVSQLLAKEKAAGADDSLLATFRDLQTVQPAYFKYLLDVINRNYGSINAYLHQQIGLSNADLLDLRTIYLEK”, the “soluble on expression in E. coli” value is “not soluble”.

Take “MGSDKIHHHHHHMTTEIRALYTRLPAIDRLLRDPAFSPLLAQHGHSQVVAQLRQMLDEAREQISQRQTLPDWSHDWQHACEQRLTAGQRSALRPVFNLTGTVLHTNLGRAIQAESAVEAVASAMRAPVTLEYDLDDAGRGHRDRAIADLLCQITGAEDACIVNNNAAAVLLMLAATASGREVVVSRGELVEIGGAFRIPDVMRQAGCQLHEVGTTNRTHAKDYRQAVNDNTALLMKVHTSNYSIEGFTKAVDEAELAAIGRELDVPVVADLGSGSLVDLSQYGLPKEPMPQEMIAAGVSLVSFSGDKLLGGPQAGIIVGKRALIAQLQSHPLKRALRADKMTLAALEATLRLYQHPEALREKLPTLRLLTRPAEEIRRLAERLQPDLAAHYADFAVSVAACQSQIGSGSLPVDRLPSAALTFTPHDGRGSRLEALAARWRALPCPVIGRIYDGRLWLDLRCLEDETRFMEMLLR”: the “soluble on expression in E. coli” value is recorded as “not soluble”.

Consider “MGSDKIHHHHHHMTTHLTGTRDEWLTARRALLDAEKTLTRHSDALARRREALPWVRVDKTYRFDTEHGAATLDDLFDGRSQLLVYHFMFGPDYKAGCPSCSALADGFDGFAVHLANHDVTLAAVSRAPLAKLLAYRQRMGWRFPWASSEGGAFNFDFNVSFTEAQQRTGDVEYNYARAAHAMDVDPPPAAVAQFAATCGTDAATYARDRPGMSAFVREDGVVYHTYSTYARGLDALWGMYAWLDRAPLGRNETGVWWRRHDEYARD”, for which the “soluble on expression in E. coli” value is “not soluble”.

“MGSDKIHHHHHHMTTKYQTIISNIEQDIQKQRLKKGDKLPSIRVLSKVYYCSKDTVQRALLELKYRHLIYAVPKSGYYVLGNVSMPDNVLNLSLEDYNNMAYEDFRLCLNEALSAKDKYLFHYYHKTEGLEELREALLLYLAENSVYSNKDQLLITSGTQQALYILSQMPFPNTGKTILLEKPTYHRMEAIVAQLGLPYQTISRHFNGLDLELLESLFQTGDIKFFYTISRFSHPLGLSYSTKEKEAIVRLAQRYQVYILEDDYLGDFVKLKEPPIHYYDTHHRIIYLKSFSMSVFPALRIGALVLPSGLKPHFLTQKSLIDLDTNLLMQKALALYLENGMFQKNLRFIKRYLKQRERQLALFLKQNCPDIHYQLTPTHLVIDYTTSDSYRNFTLDKSDRIIITGKKRYLSITINQQIQSKLNSLIKNTCGKSN”: the “soluble on expression in E. coli” value is “not soluble”.

Regarding “MGSDKIHHHHHHMTTLISFLGKGIADKTTGYRTATYRFDDDSKHTTPYFGLALAGYLRPERLILVGTAGSMWDVFFEQQDASDDDVLALIDAVRESRVDADMLSAQEKRLTKRLGLPVICRLIPYARDAAEQTEVLLTLAKLVHRSEEVFLDVTHGFRHLPMLALVAARYLAHVKDVKVRGLYYGALEMTSTNGETPVLQLDGMLQMLDWVESLATYNKDGDYGVFASLLQQDGLPEGKAKQLTRAAYFERSSNPVKARETLGSVFSAIKTHNGPMGVLFRDALTERINWFKEPDRAAWELALADAYLERRDYVRAVIYLYESFVTRAVLEHKLNPNDFSERDEAWKDARQDNKQVRKLEYLRNALAHGIKSDDKEIIRMVNDENCLDDQLKKFRRSLFN”, the “soluble on expression in E. coli” value is listed as “not soluble”.

Consider “MGSDKIHHHHHHMTTRLQDIIQPEIFTEYVVQRTTEKSALVQSGIIERNAEFDALASGPNTLVNMPFWNDLTGDSEVIRDEGNLTAGKITSGKDVARKQGRARMWGASGLSALLSGDDPMRAIADLVADYWIRQDQKMLLATLEGIFNSESMADKVLDITGEPGSDALLDGDSFIDAGQLMGDAKDLLTGVMMHSAVEAYLAKRQLIEYVQEADQTDRIPYFMNKRVIVDDAMPYDTQTKEGVIYLFGTGAIASGVGSHPNILPTEVDRNSQSSSGEDFLINRRIQILHPRGVKWTENNVSDVFPTNEELADGSNWERVYEPKAIRIVKFKFKTELDVDGA”, for which the “soluble on expression in E. coli” value is “not soluble”.

As to “MGSDKIHHHHHHMTVCVAVKVQDCIVFAADSTTSLQAVGANGEHVTMNTYDHANKLFNLRKGCPVAAMTAGIGNFGGSSISTVSKDFRSLIDRRAEGYALNWENYTIEEIVGLARKYFFEERFSSLSEKPQGSFQYWVGGYSSGEQMGEVWQFQIHNGECLEPQCSISRNVASGLAWGGAPEAINRLILGYGQRIGDALVEGGLDASLVPQAIDGIARYTQCSLVHAAMPTGDAIDLAKFLAETTKQFVRFMPGSNSVGGDLDIATITKHENFKWIARKHFYNTRINPLETNHA”, the “soluble on expression in E. coli” value is recorded as “not soluble”.

As for “MGSDKIHHHHHHMTVDPSHTIPVSVTGAFCSLNCPHCGAHYLRHMISVDEIPALVKKGYRSFLISGGMLPDGSIPFEKYYEHLKELKESHGLLYNFHVGFQKSKVAKELADVVSMDFFGDETVLKSIYGLALTPQEILDIAHFYENVVFHITVGITGGKITHEEKALEILSQETDTVVLNVFIPTPGTKFGKSFPPDLQEVVKLFEKARKLFKRVILGCMQPRGEYRKKLQSELKDLVDVITKPVGGTGEFKGCCAFIGRG”, the “soluble on expression in E. coli” value is reported as “not soluble”.

For the sequence “MGSDKIHHHHHHMTVLIIGMGNIGKKLVELGNFEKIYAYDRISKDIPGVVRLDEFQVPSDVSTVVECASPEAVKEYSLQILKNPVNYIIISTSAFADEVFRERFFSELKNSPARVFFPSGAIGGLDVLSSIKDFVKNVRIETIKPPKSLGLDLKGKTVVFEGSVEEASKLFPRNINVASTIGLIVGFEKVKVTIVADPAMDHNIHIVRISSAIGNYEFKIENIPSPENPKTSMLTVYSILRTLRNLESKIIFG”, the “soluble on expression in E. coli” value was “soluble”.

With “MGSDKIHHHHHHMTYPKRIPINAWSEVHRVARPLIITFDAYNTLYATKLPVMEQYCIVGRKYGIKANPSTLTNNFPHVFKKLKEDYPQYGKYSGIKPEQWWSILIRNVFAPNEIPDEMINEILMRFEGFDSYFVYPDLIKFLKDLKSRHPDVILGIVSNTDPIFYKLLKNIGLFETFSGHIYLSYELNLAKPDRAIFQYALDDIISKQPHLLEKYTREEILQHCFHIGDELKNDLEGAEAAGWTGILLDRNDKYGFLSNSISKPMRDEYKLSIDKIDNNSINTWEANTKQTDTLQLSERKYVVSNLEVLEELFP”, the “soluble on expression in E. coli” value is “not soluble”.

Consider “MGSDKIHHHHHHMVAITSCSDDSDGIPGWPWNDNSTEGPENPDVTEIKPRYVWIDAAANFPDYANNKENISTDMVKVKNAGFTDIIVDVRPTTGDVLFNTTAVDQVKRMDVWGSSGYVYYERTETWDYLQAFIDAARSQGLKVHASVNTFVGGYLCPYNLGSDGILFRDDSKKEWASVANLADGLTNTMDLLNDETDYGAKFLNPANDDVQNFVLQLLGDLAKYDLDGIILDRCRYDDYGLESDFSAVSKQKFEEYIGETVAHFPEDIMAPGTDEIPSDQPAYFKKWLEFRVKVIHDFIVKAREKVKSVNSEINFGVYVGAWYSSYYTSGVNWASPKYDTSAYYPKWATADYKNYGYADHLDYIFLGAYASVDKIYGSGEWTMEGFCKNGRELLKGDVPFSGGPDIGNGTGWTNGGQAAKIPDAIDACINNSDGFFAFDLCHIKMYDYWNAFKTGFDNYLESVQK”, for which the “soluble on expression in E. coli” value was “not soluble”.

On to “MGSDKIHHHHHHMVKGLRQLNNRVDILSLPGAEPEVEEAKAIDEKVNQPPTKKSSFSILSDLTKHVPEFVFELFELAFNLIAVIRLRKTVKEKNITLIYERYSLFMFASVWWAKRHNLPIVLEINDSCQVQRVRSLTFKKLAAKIEGWIFKNATGLVFISTRFKEVAEQAYGEISNSVVSPNGADLDKFIIDETSGLALRSKLGVENKIVLGYVGAFVHWHGIDWFVDLACQKLKETPELVLLLVGDGVAFEGIKKRVIEAGVESQVILPGKVPHHEVSSFLSAMDLGILPDSNDYGSPMKLFEFMAMGKGMIAPDFSPIAEVVQDNATSWLFPASNKQACIDKVFEIVNDREAHQEVGKKARAYIENERQWKHNAEQLLSLVTAREKA”, for which the “soluble on expression in E. coli” value is given as “not soluble”.

Take “MGSDKIHHHHHHMVKIMQYINKSKEEFLSEIYRIVAKIRLELELTTSEITISDFEFKMDSENSKNLILMIYTPTRTDKSLLIGPGGWVVGKLREKLNGSFKENLIIRVESYIDRKKELDAIENSISHLREKGLDISSKKDALVIIQCEYDLSSIDFINEYFNPIFITFDLGTALLPHKNRNRIEQVFKDKNLKYEFLSPYSLNGEQITDAISKNPCETICNNLISEMVNYAKNKNIEIVLFNHLNKDYEFRNGIHILNFLKMFPIKLNSLIHKGRSLDCPLLIQSCKRNKITKTFKIKQIVSGVYSGLVEPTEGAEEIIKYLK”: the “soluble on expression in E. coli” value is reported as “not soluble”.

Consider “MGSDKIHHHHHHMVKPDHGRKRQIELTEIGERIYQHAVELLQAEQNIFLEIENYQQLKTGTLKLGVPPLGSQLLTTALFDFHRQWPDIELAFMEVGSRGIEQALLNNELDVGVLLQPFDEQTFNSIELCNYPLMVLLRRDATWATRKKINLEELQHQSFLMFPENFSLNSIILDACKQYGFYPTIACRTSQWHLLADMVLQRMGIALLPQYYTDMLDPTLFAAVPLEKPNIQWHLVMAWKKNLPASPAVQAWLSIVRQHFQHIKP”, for which the “soluble on expression in E. coli” value is “not soluble”.

As to “MGSDKIHHHHHHMVKWYKTYLEVYGKSFDEISDDSIRKVKRQLKERQNDSPLVSVVLIAHNEERHLISCIWSLSENHCHFPIEIIAVNNNSTDKTEEILKSLGVTYYNETKKGPGYARQCGLDHAKGKYHICIDADTLYPPHYIETHVKYLMNPKVACTFSLWSFMVDERHSRFGLWCYEGLRDIYLRLQAIQRPELCVRGMAFSFNTEIGRRFGFRTDIIRGEDGSLALAMKPYGKIVFITSRKARVLTSNGTLNSEGSLIDNIWIRVIKALKEITGLFIKKTAYKDKDSNLIK”, the “soluble on expression in E. coli” value is “not soluble”.

As to “MGSDKIHHHHHHMVQTVYKNSDQTVFEDAKALFQLNKNILLKGPTGSGKTKLAETLSNVMKLPMHQVNCSVDLDTESLLGFKTIHTNEEGHQEIVFIDGPVIKAMKEGHILYIDEINMAKPETLPILNGVLDYRRQLTNPYTGEVIKAAPGFNVIAAINEGYVGTLPMNEALKNRFIVIEVDYIDGDILKTVIKEQSKLQDEQLIQHIVKFNEDLRTMTKQGQISEEAASIRALIDLSDLATVMPIERAVQRTIIDKLEDEREQQAILNAIELNF”, the “soluble on expression in E. coli” value was “not soluble”.

Take “MGSDKIHHHHHHMVRPASRSERASLRIMNINPWRCEVSEKLLKQVNDKVSLCEKIAAEGFSFVPGQQIREWLLASNSEALQDWQAFDASWDGMPLDEYMADGGRYRRRRFATLSAATEGPIMLEPHQPHYQSREYNSLNGGIARIYEPIPPAVIQGQTMQSILQLSRDLFSHLRPQTRWHIEAHQFRIETNQHERGQPAPEGVHRDGVDYVLVMMVKRVNISSGTTTLHNLDKVVLDSFTLTNPLDCALVDDRRCMHGVTPVEQIDPAKAAYRDVLVVTFTAKL”: the “soluble on expression in E. coli” value is on record as “not soluble”.

For the sequence “MGSDKIHHHHHHMVSEQVRERAKAGPIPKADYQALFDALEAERSPRDPEWVQAWIILHCATRQRAFACQRLLSRYNRQCVKRGTMGEYSEFLRHVQDDLGFYLPNGNAYTENFRGVDVGEIMAQCGELAARFAELELEVFANSGTLLGIVREGTLLEHDNDIDLGVLLTARTFEGAAQEWIALTDKLIADGVGVSRSTWSKVTLKLQKIGAFGVDLFPAWIDADDKVYVYPHTFGALRRDQLLPYDLHGPTGLHLPADAEAMLECNYGEGWRVPNVGWGFDWKTANAQFEAFLTAVEAAAAPD”, the “soluble on expression in E. coli” value was “not soluble”.

Source of the values: the DeepSol protein solubility set.
